Assay results reported in article PMC4664390.

Biological target: CmbHLH2 (Chrysanthemum morifolium)
Sequence (main, as listed by the source): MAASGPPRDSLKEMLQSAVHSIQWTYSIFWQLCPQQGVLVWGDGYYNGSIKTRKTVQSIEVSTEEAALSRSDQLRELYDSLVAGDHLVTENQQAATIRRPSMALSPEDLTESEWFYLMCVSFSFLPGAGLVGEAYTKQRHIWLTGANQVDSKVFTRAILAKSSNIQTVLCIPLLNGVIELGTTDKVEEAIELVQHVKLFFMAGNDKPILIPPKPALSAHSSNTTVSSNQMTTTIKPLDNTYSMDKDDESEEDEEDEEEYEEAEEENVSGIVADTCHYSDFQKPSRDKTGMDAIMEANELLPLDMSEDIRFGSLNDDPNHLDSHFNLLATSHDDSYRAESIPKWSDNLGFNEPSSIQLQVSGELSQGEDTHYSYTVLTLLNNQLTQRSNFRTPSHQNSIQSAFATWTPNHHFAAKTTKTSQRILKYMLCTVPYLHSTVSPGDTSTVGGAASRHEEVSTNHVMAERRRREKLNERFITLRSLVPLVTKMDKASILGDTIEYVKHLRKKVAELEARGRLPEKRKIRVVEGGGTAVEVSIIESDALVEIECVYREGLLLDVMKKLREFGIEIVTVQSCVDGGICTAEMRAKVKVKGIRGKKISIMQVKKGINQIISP

- CmDFR promoter activity in dual luciferase assay (LUC/REN) in tobacco leaves on co-expression of CmbHLH2 with CmMYB6, relative to the empty vector set as one: > 40 fold
Substance: CmMYB6 (natural protein)
